Reference: patent EP0636174B1, “HYALURONAN RECEPTOR (RHAMM = RECEPTOR FOR HYLURONAN MEDIATED MOBILITY) AND HYALURONAN BINDING PEPTIDES” (UNIVERSITY OF MANITOBA, priority 1992, dated 1993)

Legend:
GST-RHAMM fusion protein = biological target: T1, GST-RHAMM fusion protein (Mus musculus, UniProt Q00547); assay: Competition by peptides with binding of biotin-labelled HA to transblotted GST-RHAMM fusion protein; conditions: biotin-labelled HA pre-incubated for 1 h with 3 mg/ml peptide; Figure 13A
T1 construct: A complete RHAMM cDNA (1.43 kb) was expressed as a fusion protein with pGEX-2T in E. coli HB101; made in house; host or cells: E. coli HB101 (pGEX-2T)
T1 sequence (Q00547 319-794): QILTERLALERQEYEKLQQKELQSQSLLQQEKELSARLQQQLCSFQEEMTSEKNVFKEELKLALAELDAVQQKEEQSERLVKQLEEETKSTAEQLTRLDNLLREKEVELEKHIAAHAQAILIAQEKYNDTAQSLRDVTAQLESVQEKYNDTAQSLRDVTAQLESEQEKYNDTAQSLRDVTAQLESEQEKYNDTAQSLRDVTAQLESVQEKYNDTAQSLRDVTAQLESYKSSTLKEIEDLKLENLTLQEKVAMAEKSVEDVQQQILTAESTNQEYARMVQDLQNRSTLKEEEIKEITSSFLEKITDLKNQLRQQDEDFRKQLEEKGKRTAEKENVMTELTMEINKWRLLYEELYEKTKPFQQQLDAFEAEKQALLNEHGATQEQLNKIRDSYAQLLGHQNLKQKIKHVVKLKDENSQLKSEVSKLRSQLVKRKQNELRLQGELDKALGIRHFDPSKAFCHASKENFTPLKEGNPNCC
Method: Transblotted RHAMM fusion protein was stained with a 1:10,000 dilution of biotin-labelled HA that had been pre-incubated for 1 h with 3 mg/ml BSA (Figure 13A, lane 1) , 3 mg/ml peptide^aa401-411 (lane 2) or 3 mg/ml peptide^aa423-432 (lane 3).
GST-RHAMM fusion protein was electrophoresed on 10% SDS-PAGE and transblotted onto a nitrocellulose membrane. The membrane was cut into 3 strips and each was stained with 1:3000 diluted biotin-labelled HA in the presence of 3 mg/ml BSA, 3 mg/ml peptide^aa401-411 and 3 mg/ml peptide^aa423-432, respectively. The other steps were the same as described in immunoblots.

[1] = Hyaluronan-Sepharose affinity chromatography of peptides; type: binding; conditions: 0.15 M NaCl in PBS; Figure 13B
Method: To further test the inventor's HA-binding motif model, a number of synthetic peptides were prepared and their HA-binding ability was determined using HA-sepharose. A tyrosine residue was added to one end of each synthetic peptide for convenient spectrophotometric quantitation.
HA-Sepharose affinity gel was prepared according to the manufacturer's instruction. […]
Hyaluronan (Sigma) was coupled to AH-Sepharose 4B (Pharmacia) according to the manufacturer's instructions, resulting in an HA-Sepharose gel. Peptides, ordered from Coast Scientific (San Diego) were HPLC purified. These and randomized peptides, whose sequence was generated by computer, were applied to HA-Sepharose in the presence of 0.15 M NaCl in PBS buffer. Unbound peptides were removed by extensive washing with the same buffer. The amounts of peptides applied and that removed were determined by measuring optical density (O.D.) at 214 nm.

blocking of the binding of biotin-labelled HA to expressed GST-RHAMM fusion protein (GST-RHAMM fusion protein): blocked
binding to HA-Sepharose [1]: efficiently bound
Substance: K^423L R S Q L V K R K^432 (KLKSQLVKRK) [peptide^aa423-432]
